# Results reported in paper PMC6140455.
# Substitutions are numbered along the chain they refer to.
# T1: YTHDC2 YTH domain (Homo sapiens, UniProt Q9H6S0 1277-1430)
# T1 sequence: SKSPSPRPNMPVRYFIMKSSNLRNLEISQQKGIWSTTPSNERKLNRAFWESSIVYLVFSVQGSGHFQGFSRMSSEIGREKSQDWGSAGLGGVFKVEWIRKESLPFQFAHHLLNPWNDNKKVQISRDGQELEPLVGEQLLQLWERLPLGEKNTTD
# T2: YTHDC2 YTH domain W1360A (Homo sapiens, UniProt Q9H6S0 1277-1430, W1360A)
# T2 sequence: T1 sequence with W84A
# T3: YTHDC2 YTH domain W1310A (Homo sapiens, UniProt Q9H6S0 1277-1430, W1310A)
# T3 sequence: T1 sequence with W34A
# Legend:
# Test in all cases: fluorescence anisotropy
# [1] = molecular target: T1, YTHDC2 YTH domain
# [2] = molecular target: T2, YTHDC2 YTH domain W1360A
# [3] = molecular target: T3, YTHDC2 YTH domain W1310A
binder,measurement,setting,value
"CCGGACUGU (ssRNA, N6-methyladenosine at position 5) [GGm6ACU 9-nt RNA]",Kd,[1],3.2 ± 0.3 µM
same,binding result,[2],no binding
same,binding result,[3],no binding
